Experiments:
[1] = biological target: CH-296, a polypeptide comprising a cell binding domain, a heparin binding domain and a CS-1 domain of fibronectin (Homo sapiens (Human)) (UniProt P02751); assay: ELISA; CH-296 coated at 25 ug/mL; HRP-labeled FNH3-8, ABTS; blank subtracted
[2] = biological target: H296-H271; assay: ELISA; H296-H271 coated at 7 ug/mL; HRP-labeled FNH3-8, ABTS; blank subtracted
[3] = biological target: H296-H271; assay: ELISA; H296-H271 coated at 9 ug/mL; HRP-labeled FNH3-8, ABTS; blank subtracted
[4] = biological target: H296-H296 (modified fibronectin fragment in which two H-296's are connected); assay: ELISA as in Example 34; H296-H296 coated at 25 ug/mL in PBS; HRP-labeled FNH3-8
[5] = biological target: H271-H296; assay: ELISA; H271-H296 coated at 12 ug/mL; HRP-labeled FNH3-8, ABTS; blank subtracted
Chain of H271-H296 (chain, as listed by the source limits assumed): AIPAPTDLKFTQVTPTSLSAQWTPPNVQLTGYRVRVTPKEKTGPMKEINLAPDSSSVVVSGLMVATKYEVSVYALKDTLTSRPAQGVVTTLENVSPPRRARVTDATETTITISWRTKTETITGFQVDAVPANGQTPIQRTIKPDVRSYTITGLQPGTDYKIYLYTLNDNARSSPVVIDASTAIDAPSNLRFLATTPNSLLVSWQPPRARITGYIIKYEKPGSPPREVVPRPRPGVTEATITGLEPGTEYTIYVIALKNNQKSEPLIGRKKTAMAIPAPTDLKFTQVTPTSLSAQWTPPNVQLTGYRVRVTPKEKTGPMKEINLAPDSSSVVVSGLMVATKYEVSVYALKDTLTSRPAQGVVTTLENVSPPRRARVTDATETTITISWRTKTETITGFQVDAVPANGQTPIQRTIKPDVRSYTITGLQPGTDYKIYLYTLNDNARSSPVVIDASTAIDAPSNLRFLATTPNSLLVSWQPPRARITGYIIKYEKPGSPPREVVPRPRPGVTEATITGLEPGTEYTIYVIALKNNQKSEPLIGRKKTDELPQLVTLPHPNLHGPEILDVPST

[6] = biological target: H271-H296; assay: ELISA; H271-H296 coated at 14 ug/mL; HRP-labeled FNH3-8, ABTS; blank subtracted
[7] = biological target: H271-H296; assay: ELISA; H271-H296 coated at 20 ug/mL; HRP-labeled FNH3-8, ABTS; blank subtracted
[8] = biological target: H296-H271; assay: ELISA; H296-H271 coated at 13 ug/mL; HRP-labeled FNH3-8, ABTS; blank subtracted
[9] = biological target: H296-H271; assay: ELISA; H296-H271 coated at 15 ug/mL; HRP-labeled FNH3-8, ABTS; blank subtracted
[10] = biological target: H296-H296 (modified fibronectin fragment in which two H-296's are connected); assay: ELISA as in Example 34; H296-H296 coated at 6.25 ug/mL in PBS; HRP-labeled FNH3-8
[11] = biological target: H296-H296-HT; assay: ELISA; H296-H296-HT coated at 4 ug/mL; HRP-labeled FNH3-8, ABTS; blank subtracted
Chain of H296-H296-HT (chain, as listed by the source limits assumed): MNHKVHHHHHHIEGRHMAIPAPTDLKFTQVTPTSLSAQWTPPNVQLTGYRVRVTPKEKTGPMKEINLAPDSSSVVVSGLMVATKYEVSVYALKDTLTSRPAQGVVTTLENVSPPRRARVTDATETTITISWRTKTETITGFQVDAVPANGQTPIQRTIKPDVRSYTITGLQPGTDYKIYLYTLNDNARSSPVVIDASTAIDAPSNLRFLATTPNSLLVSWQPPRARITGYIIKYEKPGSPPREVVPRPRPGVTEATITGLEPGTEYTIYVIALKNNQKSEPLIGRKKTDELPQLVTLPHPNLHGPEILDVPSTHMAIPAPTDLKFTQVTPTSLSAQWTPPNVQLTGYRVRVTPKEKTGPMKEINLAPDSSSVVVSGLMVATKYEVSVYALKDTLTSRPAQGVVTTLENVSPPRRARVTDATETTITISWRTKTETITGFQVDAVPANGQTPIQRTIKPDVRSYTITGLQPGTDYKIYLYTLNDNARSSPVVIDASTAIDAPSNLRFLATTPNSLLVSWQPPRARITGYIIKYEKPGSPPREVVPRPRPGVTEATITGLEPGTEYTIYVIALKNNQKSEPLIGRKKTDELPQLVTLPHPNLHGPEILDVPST

[12] = biological target: H296-H296-HT; assay: ELISA; H296-H296-HT coated at 5 ug/mL; HRP-labeled FNH3-8, ABTS; blank subtracted
[13] = biological target: H296-H296 (modified fibronectin fragment in which two H-296's are connected); assay: ELISA as in Example 34; H296-H296 coated at 1.563 ug/mL in PBS; HRP-labeled FNH3-8
[14] = biological target: H296-H296 (modified fibronectin fragment in which two H-296's are connected); assay: ELISA as in Example 34; H296-H296 coated at 3.125 ug/mL in PBS; HRP-labeled FNH3-8
[15] = biological target: H296-H296-HT; assay: ELISA; H296-H296-HT coated at 10 ug/mL; HRP-labeled FNH3-8, ABTS; blank subtracted
[16] = biological target: H296-H296-HT; assay: ELISA; H296-H296-HT coated at 0.5 ug/mL; HRP-labeled FNH3-8, ABTS; blank subtracted
[17] = biological target: H296-H296-H296-HT; assay: ELISA; H296-H296-H296-HT coated at 5 ug/mL; HRP-labeled FNH3-8, ABTS; blank subtracted
Chain of H296-H296-H296-HT (chain, as listed by the source limits assumed): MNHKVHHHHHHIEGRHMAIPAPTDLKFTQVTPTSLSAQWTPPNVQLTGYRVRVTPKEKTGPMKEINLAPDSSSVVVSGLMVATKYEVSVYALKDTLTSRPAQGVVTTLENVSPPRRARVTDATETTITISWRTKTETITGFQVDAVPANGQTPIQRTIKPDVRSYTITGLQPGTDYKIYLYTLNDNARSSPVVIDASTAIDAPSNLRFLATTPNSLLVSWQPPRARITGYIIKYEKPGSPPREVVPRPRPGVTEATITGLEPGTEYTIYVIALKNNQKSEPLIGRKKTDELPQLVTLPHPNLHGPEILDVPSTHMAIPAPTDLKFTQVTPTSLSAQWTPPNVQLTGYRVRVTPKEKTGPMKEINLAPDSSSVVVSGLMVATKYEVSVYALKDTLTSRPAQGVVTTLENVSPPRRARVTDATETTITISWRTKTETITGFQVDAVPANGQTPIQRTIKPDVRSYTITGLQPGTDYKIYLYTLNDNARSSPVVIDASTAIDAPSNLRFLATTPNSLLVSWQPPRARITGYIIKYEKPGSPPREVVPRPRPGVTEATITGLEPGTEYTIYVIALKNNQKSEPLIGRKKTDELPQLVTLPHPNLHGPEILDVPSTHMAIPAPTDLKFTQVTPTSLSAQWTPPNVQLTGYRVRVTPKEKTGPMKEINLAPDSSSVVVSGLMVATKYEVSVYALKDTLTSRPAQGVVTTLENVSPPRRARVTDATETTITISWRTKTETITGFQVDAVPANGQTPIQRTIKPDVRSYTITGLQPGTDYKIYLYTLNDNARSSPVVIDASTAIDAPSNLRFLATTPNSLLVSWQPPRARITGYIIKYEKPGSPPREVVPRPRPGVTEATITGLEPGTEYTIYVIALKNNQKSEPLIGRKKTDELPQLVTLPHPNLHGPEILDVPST

[18] = biological target: H-296, a polypeptide comprising a heparin binding domain and a CS-1 domain of fibronectin (Homo sapiens (Human)) (UniProt P02751); assay: ELISA; H-296 coated at 25 ug/mL in 0.2 M acetate buffer pH 4.4; HRP-labeled FNH3-8, ABTS
[19] = biological target: H-296, a polypeptide comprising a heparin binding domain and a CS-1 domain of fibronectin (Homo sapiens (Human)) (UniProt P02751); assay: ELISA; H-296 coated at 50 ug/mL in 0.2 M acetate buffer pH 3.8; HRP-labeled FNH3-8, ABTS
[20] = biological target: H-296, a polypeptide comprising a heparin binding domain and a CS-1 domain of fibronectin (Homo sapiens (Human)) (UniProt P02751); assay: ELISA; H-296 coated at 50 ug/mL in 0.2 M acetate buffer pH 5.0; HRP-labeled FNH3-8, ABTS
[21] = biological target: H-296, a polypeptide comprising a heparin binding domain and a CS-1 domain of fibronectin (Homo sapiens (Human)) (UniProt P02751); assay: ELISA; H-296 coated at 25 ug/mL in 0.2 M phosphate buffer pH 6.8; HRP-labeled FNH3-8, ABTS
[22] = biological target: H-296, a polypeptide comprising a heparin binding domain and a CS-1 domain of fibronectin (Homo sapiens (Human)) (UniProt P02751); assay: ELISA; H-296 coated at 25 ug/mL in 0.2 M phosphate buffer pH 7.4; HRP-labeled FNH3-8, ABTS
[23] = biological target: H-296, a polypeptide comprising a heparin binding domain and a CS-1 domain of fibronectin (Homo sapiens (Human)) (UniProt P02751); assay: ELISA; H-296 coated at 25 ug/mL in 0.2 M phosphate buffer pH 8.0; HRP-labeled FNH3-8, ABTS
[24] = biological target: H-296, a polypeptide comprising a heparin binding domain and a CS-1 domain of fibronectin (Homo sapiens (Human)) (UniProt P02751); assay: ELISA; H-296 coated at 50 ug/mL in 0.2 M phosphate buffer pH 6.8; HRP-labeled FNH3-8, ABTS
[25] = biological target: H-296, a polypeptide comprising a heparin binding domain and a CS-1 domain of fibronectin (Homo sapiens (Human)) (UniProt P02751); assay: ELISA; H-296 coated at 50 ug/mL in 0.2 M phosphate buffer pH 8.0; HRP-labeled FNH3-8, ABTS
[26] = biological target: H-296, a polypeptide comprising a heparin binding domain and a CS-1 domain of fibronectin (Homo sapiens (Human)) (UniProt P02751); assay: ELISA as in Example 34; H-296 coated at 100 ug/mL in pH 5.6 acetate buffer; HRP-labeled FNH3-8
[27] = biological target: H-296, a polypeptide comprising a heparin binding domain and a CS-1 domain of fibronectin (Homo sapiens (Human)) (UniProt P02751); assay: ELISA as in Example 34; H-296 coated at 12.5 ug/mL in pH 5.6 acetate buffer; HRP-labeled FNH3-8

Chain of H296-H271 (chain, as listed by the source limits assumed): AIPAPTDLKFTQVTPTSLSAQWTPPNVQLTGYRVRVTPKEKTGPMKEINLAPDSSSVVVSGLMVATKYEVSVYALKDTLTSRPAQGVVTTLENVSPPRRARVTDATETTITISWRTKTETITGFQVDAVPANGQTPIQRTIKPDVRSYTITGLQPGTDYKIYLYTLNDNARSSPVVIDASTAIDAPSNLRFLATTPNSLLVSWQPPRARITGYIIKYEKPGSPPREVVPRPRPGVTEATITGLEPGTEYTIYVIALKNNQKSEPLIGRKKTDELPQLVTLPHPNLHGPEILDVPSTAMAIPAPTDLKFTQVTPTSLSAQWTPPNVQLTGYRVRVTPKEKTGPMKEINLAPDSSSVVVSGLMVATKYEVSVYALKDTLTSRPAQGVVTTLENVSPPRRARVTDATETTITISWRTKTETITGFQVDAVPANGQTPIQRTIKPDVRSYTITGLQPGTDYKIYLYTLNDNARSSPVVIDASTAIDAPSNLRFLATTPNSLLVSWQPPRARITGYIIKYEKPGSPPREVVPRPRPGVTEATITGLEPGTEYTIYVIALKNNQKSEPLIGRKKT

## FNH3-8 antibody (manufactured by TAKARA BIO INC.) labeled with HRP
[1]
  405 nm (Found Value - Blank): 0.564
[2]
  405 nm (Found Value - Blank): 0.518
[3]
  405 nm (Found Value - Blank): 0.56
[4]
  absorbance at 405 nm: 2.02
[5]
  405 nm (Found Value - Blank): 0.639
[6]
  405 nm (Found Value - Blank): 0.605
[7]
  405 nm (Found Value - Blank): 0.603
[8]
  405 nm (Found Value - Blank): 0.609
[9]
  405 nm (Found Value - Blank): 0.635
[10]
  absorbance at 405 nm: 1.29
[11]
  405 nm (Found Value - Blank): 0.843
[12]
  405 nm (Found Value - Blank): 0.878
[13]
  absorbance at 405 nm: 0.732
[14]
  absorbance at 405 nm: 1.01
[15]
  405 nm (Found Value - Blank): 0.976
[16]
  405 nm (Found Value - Blank): 0.033
[17]
  405 nm (Found Value - Blank): 0.87
[18]
  absorbance at 405 nm: 0.428
[19]
  absorbance at 405 nm: 0.213
[20]
  absorbance at 405 nm: 0.451
[21]
  absorbance at 405 nm: 0.075
[22]
  absorbance at 405 nm: 0.08
[23]
  absorbance at 405 nm: 0.104
[24]
  absorbance at 405 nm: 0.167
[25]
  absorbance at 405 nm: 0.174
[26]
  absorbance at 405 nm: 0.499
[27]
  absorbance at 405 nm: 0.277

Source: patent publication US20100255578A1
